For the assay, the target named is T1, MERS-CoV receptor-binding domain fused to the Fc domain of human IgG1 (MERS-CoV, UniProt K9N5Q8 381-587).
T1 sequence: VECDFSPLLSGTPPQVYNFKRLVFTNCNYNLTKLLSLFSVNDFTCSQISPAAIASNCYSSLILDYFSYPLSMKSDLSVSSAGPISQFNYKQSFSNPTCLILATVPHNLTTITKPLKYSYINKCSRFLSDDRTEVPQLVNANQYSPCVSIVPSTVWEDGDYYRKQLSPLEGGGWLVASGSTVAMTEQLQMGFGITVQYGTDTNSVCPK
Nature of the assay: SPR.

B1: soluble monomeric human ACE2-NN (enzymatically inactive human ACE2 lacking its active-site histidines) (domain or fragment)
chain: QSTIEEQAKTFLDKFNHEAEDLFYQSSLASWNYNTNITEENVQNMNNAGDKWSAFLKEQSTLAQMYPLQEIQNLTVKLQLQALQQNGSSVLSEDKSKRLNTILNTMSTIYSTGKVCNPDNPQECLLLEPGLNEIMANSLDYNERLWAWESWRSEVGKQLRPLYEEYVVLKNEMARANHYEDYGDYWRGDYEVNGVDGYDYSRGQLIEDVEHTFEEIKPLYEHLHAYVRAKLMNAYPSYISPIGCLPAHLLGDMWGRFWTNLYSLTVPFGQKPNIDVTDAMVDQAWDAQRIFKEAEKFFVSVGLPNMTQGFWENSMLTDPGNVQKAVCHPTAWDLGKGDFRILMCTKVTMDDFLTAHNEMGNIQYDMAYAAQPFLLRNGANEGFHEAVGEIMSLSAATPKHLKSIGLLSPDFQEDNETEINFLLKQALTIVGTLPFTYMLEKWRWMVFKGEIPKDQWMKKWWEMKREIVGVVEPVPHDETYCDPASLFHVSNDYSFIRYYTRTLYQFQFQEALCQAAKHEGPLHKCDISNSTEAGQKLFNMLRLGKSEPWTLALENVVGAKNMNVRPLLNYFEPLFTWLKDQNKNSFVGWSTDWSPYEPEA
B1: the Kd (as a rule, a measure of binding affinity in units of concentration) was greater than 35 µM.

The values are drawn from PMC7337384 (bioRxiv, 2020).
